Values quoted from earlier work, collected in patent publication US11845786B2, “Peptides inhibiting KLK1, KLK4, or KLK4 and KLK8” (Daiichi Sankyo Company, Limited, priority 2017, dated 2023).

T1: KLK12 (Homo sapiens, UniProt Q9UKR0)
T1 sequence (Q9UKR0 18-248): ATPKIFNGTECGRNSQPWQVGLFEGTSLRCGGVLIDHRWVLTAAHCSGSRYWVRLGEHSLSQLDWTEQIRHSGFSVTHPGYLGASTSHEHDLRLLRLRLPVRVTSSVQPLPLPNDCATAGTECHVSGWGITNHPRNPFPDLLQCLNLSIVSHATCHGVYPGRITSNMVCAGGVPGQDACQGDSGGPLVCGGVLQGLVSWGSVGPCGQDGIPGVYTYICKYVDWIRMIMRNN

T2: KLK13 (Homo sapiens, UniProt Q9UKR3)
T2 sequence (Q9UKR3 17-277): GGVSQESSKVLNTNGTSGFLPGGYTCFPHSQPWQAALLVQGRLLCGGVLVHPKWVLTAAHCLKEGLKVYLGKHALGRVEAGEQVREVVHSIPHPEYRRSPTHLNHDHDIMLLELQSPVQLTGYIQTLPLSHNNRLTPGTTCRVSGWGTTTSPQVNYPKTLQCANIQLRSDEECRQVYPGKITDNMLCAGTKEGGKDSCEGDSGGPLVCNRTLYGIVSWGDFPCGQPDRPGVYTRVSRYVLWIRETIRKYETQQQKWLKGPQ

T3: KLK8 (Homo sapiens, UniProt O60259)
T3 sequence (O60259 33-260): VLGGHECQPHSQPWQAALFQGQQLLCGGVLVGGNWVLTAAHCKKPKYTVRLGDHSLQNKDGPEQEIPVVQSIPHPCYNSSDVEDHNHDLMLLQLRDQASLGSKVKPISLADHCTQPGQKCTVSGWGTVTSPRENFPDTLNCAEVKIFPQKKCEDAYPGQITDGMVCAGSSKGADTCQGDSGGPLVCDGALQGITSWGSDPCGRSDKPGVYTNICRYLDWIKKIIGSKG


Legend:
KLK4 = KLK4 (Homo sapiens, UniProt Q9Y5K2); details: Non Patent Literature 5
KLK12 = target: T1, KLK12; details: Non Patent Literature 5
KLK13 = target: T2, KLK13; details: Non Patent Literature 5
KLK8 = target: T3, KLK8; details: Non Patent Literature 7

Sequence of KLK4 (Q9Y5K2 31-254): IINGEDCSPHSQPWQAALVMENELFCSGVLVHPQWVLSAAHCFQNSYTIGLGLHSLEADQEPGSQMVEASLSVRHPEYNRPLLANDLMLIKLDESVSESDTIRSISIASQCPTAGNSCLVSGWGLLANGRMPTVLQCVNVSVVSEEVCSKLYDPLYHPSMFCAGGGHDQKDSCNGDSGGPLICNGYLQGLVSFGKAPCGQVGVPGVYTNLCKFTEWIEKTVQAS

Ki (KLK4) [nM] | Ki (KLK12) [nM] | Ki (KLK13) [nM] | KLK8 inhibitory activity (KLK8) | Molecule
27 | 1 | 1 | – | SPINK6: human serine protease of Kazal-type 6, natural KLK4 inhibitor of low specificity (QGGQVDCGEFQDPKVYCTRESNPHCGSDGQTYGNKCAFCKAIVKSGGKISLKHPGKC; UniProt Q6UWN8 24-80, looked up)
– | – | – | very weak | SPINK9: human serine protease of Kazal-type 9, reported to have KLK8 inhibitory activity (protein, UniProt Q5DT21 20-86, looked up) Serine protease inhibitor …: IECAKQTKQMVDCSHYKKLPPGQQRFCHHMYDPICGSDGKTYKNDCFFCSKVKKTDGTLKFVHFGKC
